Measurements as given in patent US20130122005A1, “ANTICANCER COMBINATION THERAPY” (priority 2011, published 2013).

Target: human IGF-1R (human) (UniProt P08069)
Assay: cell-based or functional assay

human IGF-1R (human), sequence (P08069 31-1367): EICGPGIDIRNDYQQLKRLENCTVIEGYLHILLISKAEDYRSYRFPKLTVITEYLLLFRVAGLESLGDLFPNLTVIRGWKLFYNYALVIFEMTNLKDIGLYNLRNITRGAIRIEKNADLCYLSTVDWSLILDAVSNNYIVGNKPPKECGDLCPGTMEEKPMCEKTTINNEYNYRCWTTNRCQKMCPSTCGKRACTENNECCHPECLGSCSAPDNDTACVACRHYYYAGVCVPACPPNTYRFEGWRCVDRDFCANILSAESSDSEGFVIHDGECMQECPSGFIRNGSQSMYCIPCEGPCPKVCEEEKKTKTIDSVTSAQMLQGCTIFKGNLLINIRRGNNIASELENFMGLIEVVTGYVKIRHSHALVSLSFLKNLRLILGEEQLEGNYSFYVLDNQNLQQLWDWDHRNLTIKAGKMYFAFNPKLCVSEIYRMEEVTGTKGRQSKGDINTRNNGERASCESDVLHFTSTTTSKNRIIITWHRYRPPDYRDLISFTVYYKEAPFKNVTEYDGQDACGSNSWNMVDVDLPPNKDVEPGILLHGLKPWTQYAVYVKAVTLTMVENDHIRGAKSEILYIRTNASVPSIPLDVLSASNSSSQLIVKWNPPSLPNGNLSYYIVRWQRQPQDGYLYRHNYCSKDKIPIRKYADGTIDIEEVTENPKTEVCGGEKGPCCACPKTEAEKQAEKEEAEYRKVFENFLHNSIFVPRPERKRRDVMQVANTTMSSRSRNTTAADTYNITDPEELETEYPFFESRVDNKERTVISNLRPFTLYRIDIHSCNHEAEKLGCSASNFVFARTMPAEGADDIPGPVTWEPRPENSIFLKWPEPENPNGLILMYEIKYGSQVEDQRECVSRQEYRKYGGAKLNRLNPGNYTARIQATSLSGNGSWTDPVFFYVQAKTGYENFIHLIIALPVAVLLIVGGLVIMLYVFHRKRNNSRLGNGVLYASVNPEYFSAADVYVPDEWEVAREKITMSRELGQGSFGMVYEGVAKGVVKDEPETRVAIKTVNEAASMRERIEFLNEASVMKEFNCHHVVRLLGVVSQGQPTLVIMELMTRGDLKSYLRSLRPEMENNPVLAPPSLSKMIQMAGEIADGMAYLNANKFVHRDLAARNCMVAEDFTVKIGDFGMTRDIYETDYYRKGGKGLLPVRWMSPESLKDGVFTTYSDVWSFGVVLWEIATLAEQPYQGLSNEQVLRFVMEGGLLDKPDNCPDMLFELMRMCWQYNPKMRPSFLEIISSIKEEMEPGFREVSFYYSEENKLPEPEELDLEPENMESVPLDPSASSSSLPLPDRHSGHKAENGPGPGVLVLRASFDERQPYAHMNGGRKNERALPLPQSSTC

In the case of “IGF-1R antibody αIR3 (Calbiochem, No. GR11L)”, the % Remaining Phosphorylation at 15 µg/mL (100 nM) Inhibitor, IGF-1 (20 ng/mL) induced IGF-1R phosphorylation is reported as 35%, the % Remaining Phosphorylation at 15 µg/mL (100 nM) Inhibitor, IGF-2 (100 ng/mL) induced IGF-1R phosphorylation is reported as 76% and the % Remaining Phosphorylation at 15 µg/mL (100 nM) Inhibitor, human serum (20%) induced IGF-1R phosphorylation is reported as 120%. It also gave an IC50, IGF-1 (20 ng/mL) induced IGF-1R phosphorylation, cell-based ELISA of 1.16 µg/mL, an IC50, IGF-2 (100 ng/mL) induced IGF-1R phosphorylation, cell-based ELISA of over 15 µg/mL and an IC50, human serum (20%) induced IGF-1R phosphorylation, cell-based ELISA of over 15 µg/mL.
